Measured values published in PMC3402909 (Biopolymers, 2011).
Where a SMILES comes first, the peptide text is derived from it.

Key:
[1] = target: Sos1 WT peptide 1 PEP (Homo sapiens) (UniProt Q07889); conditions: cited from earlier work
Grb2-Sos1 association = Grb2-Sos1 association (Rattus norvegicus, UniProt P62994); assay: Blockade of Grb2-Sos1 association in PC12 cell lysates; format: biochemical, human; conditions: 1 μM peptide, PC12 cell lysate
Grb2 SH3 N-domain = assay: other fluorescence titration

Grb2-Sos1 association, sequence (P62994 whole entry): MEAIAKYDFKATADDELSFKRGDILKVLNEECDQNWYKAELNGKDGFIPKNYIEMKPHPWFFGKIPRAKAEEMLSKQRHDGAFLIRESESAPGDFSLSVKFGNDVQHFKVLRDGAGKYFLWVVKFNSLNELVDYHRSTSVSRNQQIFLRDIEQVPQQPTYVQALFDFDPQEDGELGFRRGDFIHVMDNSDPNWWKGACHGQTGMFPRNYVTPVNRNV
Grb2 N-terminal SH3, sequence (P62993 1-58): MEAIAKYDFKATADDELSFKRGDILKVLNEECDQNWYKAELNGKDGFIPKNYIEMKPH

Grb2 N-terminal SH3 (from UniProt P62993)
Kd [1]: 39 µM

CC(=O)N1CCC[C@H]1C(=O)N[C@@H](CCCNC(=N)N)C(=O)N[C@H](C(=O)N1CCC[C@H]1C(=O)N1CCC[C@H]1C(=O)N1CCC[C@H]1C(=O)N1CCC[C@H]1C(=O)N[C@H](C(=O)N[C@@H](CCCNC(=N)N)C(=O)N[C@@H](CCCNC(=N)N)C(N)=O)C(C)C)C(C)C [Peptide 13, Ac-P-R-V-P-P-P-P-V-R-R-NH2] (Ac-PRVPPPPVRR-NH2)
inhibition of Grb2-Sos1 association (Grb2-Sos1 association): little inhibition

Ac-PRVPPPPVRR-NH2 [scrambled peptide Ac-P-R-V-P-P-P-P-V-R-R-NH2 (13)]
Kd (Grb2 SH3 N-domain): 173 µM
